Laboratory results as given in article PMC10974264, “The Evolution and Application of a Novel DNA Aptamer Targeting Bone Morphogenetic Protein 2 for Bone Regeneration”.

T1: rhBMP-2 (His-tagged, refolded, E. coli-expressed) (human, UniProt P12643 283-396)
T1 sequence: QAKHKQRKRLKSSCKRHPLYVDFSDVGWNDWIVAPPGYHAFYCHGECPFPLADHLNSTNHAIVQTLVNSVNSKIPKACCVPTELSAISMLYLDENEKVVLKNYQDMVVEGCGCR

B1: BA1 (ssDNA)
DNA: CGTACGGTCGACGCTAGCAAAACAAAAAAAAATAAAAAAAAAAAGACTAAAGACACGTGGAGCTCGGATCC
B2: BA1 in collagen fiber (ssDNA)
DNA: B1 DNA
B3: BNA2 (ssDNA)
DNA: CGTACGGTCGACGCTAGCATCAGCTCTCTGGGCTGAGTGGGTGGTGTGGCACGCACGTGGAGCTCGGATCC
B4: BA2 (ssDNA)
DNA: CGTACGGTCGACGCTAGCAAAAAAAAATCTAAAAACAAGAAAAGAAAAACAAACACGTGGAGCTCGGATCC

Tests used:
[1] = target: T1, rhBMP-2 (His-tagged, refolded, E. …); experiment: ELONA; immobilized rhBMP-2, 100 ng/well; EMSA: 20 mM HEPES pH 7.4, 150 mM NaCl, 2 mM MgCl2, 2 mM CaCl2, 2 mM KCl, 37 C 1 h, 12% native PAGE at 4 C; ELONA: His-rhBMP-2 on HisSorb plate, biotinylated DNA 1 h at 37 C, PBST washes; settings: protein: recombinant, tags: His tag (pET-15b NdeI/BamHI), chain copies: 2, label: biotin (ELONA), none in EMSA
[2] = target: T1, rhBMP-2 (His-tagged, refolded, E. …); experiment: ELISA-like; fiber of 500 nM BA1 and 10% type I collagen (0.3 mg/mL); EMSA: 20 mM HEPES pH 7.4, 150 mM NaCl, 2 mM MgCl2, 2 mM CaCl2, 2 mM KCl, 37 C 1 h, 12% native PAGE at 4 C; ELONA: His-rhBMP-2 on HisSorb plate, biotinylated DNA 1 h at 37 C, PBST washes; settings: protein: recombinant; tags: His tag (pET-15b NdeI/BamHI); chain copies: 2; label: biotin

Row | Binder | Kd [1] [nM] | further results
1 | B1 | – | Kd ([1]; single strand, predicted hairpin-like): 6.95 ± 0.53 nM
2 | B2 | – | Kd [2]: ~3.5 nM
3 | B3 | 22.3 ± 1.97 | –
4 | B4 | 20.3 ± 4.73 | –
